This note sets out measurements from PMC3928677 (Science (New York, N.Y.), 2013).

What is called EC50 is the concentration at which the effect is half-maximal. A high value points to weaker potency. For orientation: stoichiometry N means the number of molecules, sites or subunits per partner or assembly.

Where “and” joins values, the source holds several entries; their conditions need not be identical. Equal values may be shown once. Read-outs that look alike come from different tables or passages of the source.

The target in one series is T1, RseB (Escherichia coli, UniProt P0AFX9).
T1 sequence (P0AFX9 24-318): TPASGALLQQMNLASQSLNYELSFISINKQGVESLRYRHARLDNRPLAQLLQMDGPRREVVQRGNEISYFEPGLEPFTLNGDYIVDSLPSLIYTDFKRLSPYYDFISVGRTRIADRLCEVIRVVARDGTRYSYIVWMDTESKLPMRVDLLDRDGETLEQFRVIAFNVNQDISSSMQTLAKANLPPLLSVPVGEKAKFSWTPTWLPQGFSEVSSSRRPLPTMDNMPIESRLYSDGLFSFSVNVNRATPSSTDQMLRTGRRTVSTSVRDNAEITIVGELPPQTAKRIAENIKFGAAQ
In words: fluorescence anisotropy, displacement of fluorescent RseA^P. In kind it is binding. A general note: In fluorescence polarisation assays a small probe gives low polarisation when free and higher when bound to something large.

Series [1] deals with the molecule itself. In words: SEC. Background: In gel filtration, larger molecules generally elute earlier.
Series [2] deals with the molecule itself. In words: SEC. The source holds these as a separate data set.

For `CCCCCCCCCCC[C@@H](O)CC(=O)N[C@H]1[C@H](OC[C@H]2O[C@H](OP(=O)(O)O)[C@H](NC(=O)C[C@H](O)CCCCCCCCCCC)[C@@H](O)[C@@H]2O)O[C@H](CO)[C@@H](OP(=O)(O)O)[C@@H]1O` [L-IIA], the EC50 at RseB was roughly 65 µM.

B1: MucB (natural protein, Pseudomonas aeruginosa, UniProt P38108 22-316, looked up)
chain: ADASDWLNRLAEADRQNSFQGTFVYERNGSFSTHEIWHRVESDGAVRERLLQLDGARQEVVRVDGRTQCISGGLADQLADAQLWPVRKFDPSQLASWYDLRLVGESRVAGRPAVVLAVTPRDQHRYGFELHLDRDTGLPLKSLLLNEKGQLLERFQFTQLNTGAAPAEDQLQAGAECQVVGPAKADGEKTVAWRSEWLPPGFTLTRSFMRRSPVTPDPVACLTYGDGLARFSVFIEPLHGAMVGDARSQLGPTVVVSKRLQTDDGGQMVTVVGEVPLGTAERVALSIRPEAAAQK
modifications: 35S label (in the elution assay from MucA^P-agarose only)
Take B1: the “stoichiometry N” value in “SEC [1]” was 4 and 2.

B2: RseB (natural protein, E. coli, UniProt P0AFX9 24-318, looked up)
chain: TPASGALLQQMNLASQSLNYELSFISINKQGVESLRYRHARLDNRPLAQLLQMDGPRREVVQRGNEISYFEPGLEPFTLNGDYIVDSLPSLIYTDFKRLSPYYDFISVGRTRIADRLCEVIRVVARDGTRYSYIVWMDTESKLPMRVDLLDRDGETLEQFRVIAFNVNQDISSSMQTLAKANLPPLLSVPVGEKAKFSWTPTWLPQGFSEVSSSRRPLPTMDNMPIESRLYSDGLFSFSVNVNRATPSSTDQMLRTGRRTVSTSVRDNAEITIVGELPPQTAKRIAENIKFGAAQ
modifications: 35S label (in the elution assay from RseA^P-agarose only)
Turning to B2, the “stoichiometry N” value came out at 4 in “SEC [1]” and 2 in “SEC [2]”.
